These results are taken from US20060135432A1 (NEUROGENEX, published 2006).

Assay [1] has as its target bfGnRHR-2 (bullfrog). In words: cell-based or functional assay.
In assay [2] the target is bfGnRHR-2 (bullfrog). Put plainly: cell-based or functional assay. The source holds these as a separate data set.
The target of assay [3] is T1, Primate GnRH-2 receptor (Primate (from a CV-1 cell genome)). In words: cell-based or functional assay.
In assay [4] the target is T2, bfGnRHR-3 (bullfrog).
T2 construct: whole, on cells; also called bullfrog GnRH receptor 3; bfGnRH receptor
In words: displacement of I^125-GnRH-2 from membranes of GH3 cells expressing bfGnRHR-3. As for the experimental part: (§1) After 48 hours, the cells were homogenized to obtain cellular membranes, which were then dissolved in binding buffer (40 mM Tris, pH 7.4, 2 mM MgCl₂).

In assay [5] the target is T3, rat GnRHR (rat, UniProt P30969 1-327).
T3 sequence (looked up): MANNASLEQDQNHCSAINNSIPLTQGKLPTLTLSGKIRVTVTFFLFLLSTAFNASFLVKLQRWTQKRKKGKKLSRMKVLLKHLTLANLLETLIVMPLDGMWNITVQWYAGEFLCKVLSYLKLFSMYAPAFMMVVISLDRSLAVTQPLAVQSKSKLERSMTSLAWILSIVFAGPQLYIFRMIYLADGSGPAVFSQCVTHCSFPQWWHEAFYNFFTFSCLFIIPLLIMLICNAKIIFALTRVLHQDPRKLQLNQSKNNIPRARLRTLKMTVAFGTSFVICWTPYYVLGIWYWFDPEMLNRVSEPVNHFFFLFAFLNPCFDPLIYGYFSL
In words: cell-based or functional assay.

The target in assay [6] is bfGnRHR-2 (bullfrog). In words: cell-based or functional assay. This is another data set of the same source.
The target in assay [7] is bfGnRHR-1 (bullfrog). In words: cell-based or functional assay.
The target in assay [8] is T3, rat GnRHR. Put plainly: cell-based or functional assay. This is another data set of the same source.
Assay [9] has as its target T2, bfGnRHR-3. Put plainly: cell-based or functional assay.
For assay [10], the target named is T1, Primate GnRH-2 receptor. In words: cell-based or functional assay. The source holds these as a separate data set.
The target in assay [11] is T3, rat GnRHR. Put plainly: displacement of I^125-GnRH-2 from membranes of GH3 cells expressing rat GnRHR. As for the experimental part:
as §1

Assay [12] deals with bfGnRHR-1 (bullfrog). Put plainly: cell-based or functional assay. This is another data set of the same source.

[ ]: non-standard residue; d: D form. dPhe(4-Cl) = N[C@H](Cc1ccc(Cl)cc1)C(=O)O; d2Nal = N[C@H](Cc1ccc2ccccc2c1)C(=O)O; dCit = NC(=O)NCCC[C@@H](N)C(=O)O; d3Pal = N[C@H](Cc1cccnc1)C(=O)O; pGlu = O=C1CC[C@@H](C(=O)O)N1

Turning to Ac-[d2Nal][dPhe(4-Cl)][d3Pal]SY[dCit]WYP[dA]-NH2 [Trptorelix-1], the “Log IC50, inhibition of GnRH-2-induced inositol phosphate production in GH3 cells expressing the receptor” value with bfGnRHR-2 [1] is -8.1 log IC50 (concentration unit not printed). Moreover, the “inhibition of GnRH-2-induced IP production, sensitivity compared with Cetrorelix” value with bfGnRHR-2 [2] is 100 fold more sensitive than Cetrorelix. In addition, the “Log IC50, inhibition of GnRH-2-induced c-fos-luc luciferase activity” value with Primate GnRH-2 receptor [3] was -5.74 log IC50 (concentration unit not printed).

B1: Trptorelix-2 (peptide)
peptide: Ac-[d2Nal][dPhe(4-Cl)][d3Pal]SH[dCit]WYP[dA]-NH2
SMILES: CC(=O)N[C@H](Cc1ccc2ccccc2c1)C(=O)N[C@H](Cc1ccc(Cl)cc1)C(=O)N[C@H](Cc1cccnc1)C(=O)N[C@@H](CO)C(=O)N[C@@H](Cc1c[nH]cn1)C(=O)N[C@H](CCCNC(N)=O)C(=O)N[C@@H](Cc1c[nH]c2ccccc12)C(=O)N[C@@H](Cc1ccc(O)cc1)C(=O)N1CCC[C@H]1C(=O)N[C@H](C)C(N)=O
B1: the “Log IC50, inhibition of GnRH-2-induced c-fos-luc luciferase activity” value with Primate GnRH-2 receptor [3] is -6.19 log IC50 (concentration unit not printed).

B2: GnRH-2 (peptide)
peptide: [pGlu]HWSHGWYPG-NH2
modifications: also: I-125 radiolabelled form used as tracer
notes: Purchased from Sigma Co; also called gonadotropin-releasing hormone-2; cGnRH-II
For B2, the entries for the “log IC50” value with bfGnRHR-3 [4] and with rat GnRHR [11] were -8.63 log IC50 (concentration unit not printed) and -6.08 log IC50 (concentration unit not printed), respectively. For the same molecule, the “inositol phosphate production, sensitivity compared with GnRH-1” value with rat GnRHR [5] was 10 fold lower sensitivity than GnRH-1. Besides, the “Log EC50, inositol phosphate production in GH3 cells expressing the receptor” value (shortened to “Log EC50, inositol phosphate production”) was -8.98 log EC50 (concentration unit not printed) in the assay with bfGnRHR-2 [6], -9.41 log EC50 (concentration unit not printed) with bfGnRHR-1 [7], -8.06 log EC50 (concentration unit not printed) with rat GnRHR [8] and -9.51 log EC50 (concentration unit not printed) with bfGnRHR-3 [9]. The “Emax (fold-induction), luciferase activation” value (“Emax (fold-induction)” for short) with Primate GnRH-2 receptor [10] was 11.7 fold-induction. In addition, in the assay with Primate GnRH-2 receptor [10], the “Ratio^a (EC50 relative to the EC50 of GnRH-2), luciferase activation” value is 1 ratio to GnRH-2.

B3: [D-Trp^6]GnRH-2 (peptide)
peptide: [pGlu]HWSH[dW]WYPG-NH2
SMILES: NC(=O)CNC(=O)[C@@H]1CCCN1C(=O)[C@H](Cc1ccc(O)cc1)NC(=O)[C@H](Cc1c[nH]c2ccccc12)NC(=O)[C@@H](Cc1c[nH]c2ccccc12)NC(=O)[C@H](Cc1c[nH]cn1)NC(=O)[C@H](CO)NC(=O)[C@H](Cc1c[nH]c2ccccc12)NC(=O)[C@H](Cc1c[nH]cn1)NC(=O)[C@@H]1CCC(=O)N1
For the molecule B3, the entries for the “log IC50” value with bfGnRHR-3 [4] and with rat GnRHR [11] were -8.1 log IC50 (concentration unit not printed) and -7.01 log IC50 (concentration unit not printed), respectively. In addition, the “Log EC50, inositol phosphate production” value was -9.21 log EC50 (concentration unit not printed) with bfGnRHR-2 [6], -9.4 log EC50 (concentration unit not printed) with bfGnRHR-1 [7], -7.92 log EC50 (concentration unit not printed) with rat GnRHR [8] and -9.22 log EC50 (concentration unit not printed) with bfGnRHR-3 [9]. In addition, the “Emax (fold-induction)” value in the assay with Primate GnRH-2 receptor [10] was 11.2 fold-induction. Also, the “Ratio^a (EC50 relative to the EC50 of GnRH-2), luciferase activation” value with Primate GnRH-2 receptor [10] is 1.2 ratio to GnRH-2.

B4: [D-Ala^6, Tyr^7, Trp^8]GnRH-2 (peptide)
peptide: [pGlu]HWSH[dA]YWPG-NH2
SMILES: C[C@@H](NC(=O)[C@H](Cc1c[nH]cn1)NC(=O)[C@H](CO)NC(=O)[C@H](Cc1c[nH]c2ccccc12)NC(=O)[C@H](Cc1c[nH]cn1)NC(=O)[C@@H]1CCC(=O)N1)C(=O)N[C@@H](Cc1ccc(O)cc1)C(=O)N[C@@H](Cc1c[nH]c2ccccc12)C(=O)N1CCC[C@H]1C(=O)NCC(N)=O
For the molecule B4, in the assay with Primate GnRH-2 receptor [10], the “Emax (fold-induction)” value was 12.8 fold-induction and the “Ratio^a (EC50 relative to the EC50 of GnRH-2), luciferase activation” value was 6.61 ratio to GnRH-2.

B5: [D-Ala^6, Leu^7]GnRH-2 (peptide)
peptide: [pGlu]HWSH[dA]LYPG-NH2
SMILES: CC(C)C[C@H](NC(=O)[C@@H](C)NC(=O)[C@H](Cc1c[nH]cn1)NC(=O)[C@H](CO)NC(=O)[C@H](Cc1c[nH]c2ccccc12)NC(=O)[C@H](Cc1c[nH]cn1)NC(=O)[C@@H]1CCC(=O)N1)C(=O)N[C@@H](Cc1ccc(O)cc1)C(=O)N1CCC[C@H]1C(=O)NCC(N)=O
B5: in the assay with Primate GnRH-2 receptor [10], the “Emax (fold-induction)” value was 9.04 fold-induction and the “Ratio^a (EC50 relative to the EC50 of GnRH-2), luciferase activation” value is 2.51 ratio to GnRH-2.

B6: [Leu^5, D-Ala^6]GnRH-2 (peptide)
peptide: [pGlu]HWSL[dA]WYPG-NH2
SMILES: CC(C)C[C@H](NC(=O)[C@H](CO)NC(=O)[C@H](Cc1c[nH]c2ccccc12)NC(=O)[C@H](Cc1c[nH]cn1)NC(=O)[C@@H]1CCC(=O)N1)C(=O)N[C@H](C)C(=O)N[C@@H](Cc1c[nH]c2ccccc12)C(=O)N[C@@H](Cc1ccc(O)cc1)C(=O)N1CCC[C@H]1C(=O)NCC(N)=O
As to B6, in the assay with Primate GnRH-2 receptor [10], the “Emax (fold-induction)” value was 6.22 fold-induction and the “Ratio^a (EC50 relative to the EC50 of GnRH-2), luciferase activation” value is 11 ratio to GnRH-2.

B7: [D-Lys^6]GnRH-2 (peptide)
peptide: [pGlu]HWSH[dK]WYPG-NH2
SMILES: NCCCC[C@@H](NC(=O)[C@H](Cc1c[nH]cn1)NC(=O)[C@H](CO)NC(=O)[C@H](Cc1c[nH]c2ccccc12)NC(=O)[C@H](Cc1c[nH]cn1)NC(=O)[C@@H]1CCC(=O)N1)C(=O)N[C@@H](Cc1c[nH]c2ccccc12)C(=O)N[C@@H](Cc1ccc(O)cc1)C(=O)N1CCC[C@H]1C(=O)NCC(N)=O
On to B7, for which, in the assay with Primate GnRH-2 receptor [10], the “Emax (fold-induction)” value came out at 11.7 fold-induction and the “Ratio^a (EC50 relative to the EC50 of GnRH-2), luciferase activation” value was 0.66 ratio to GnRH-2.

B8: GnRH-1 (peptide)
peptide: EHWSYGLRPG
modifications: pyroGlu at 1; C-terminal amide (GlyNH2); radiolabelled with I^125 where used as tracer in Example 4
notes: also called mGnRH; mammalian GnRH
On to B8, for which the “log IC50” value with bfGnRHR-3 [4] is -7.32 log IC50 (concentration unit not printed). Also, in the assay with bfGnRHR-2 [2], the “inositol phosphate production, concentration needed compared with GnRH-2” value was ~1000 fold higher concentration than GnRH-2. In addition, the “Log EC50, inositol phosphate production” value is -5.59 log EC50 (concentration unit not printed) with bfGnRHR-2 [6], -8.52 log EC50 (concentration unit not printed) with bfGnRHR-1 [7] and -8.42 log EC50 (concentration unit not printed) with bfGnRHR-3 [9].

B9: [D-Ala^6]GnRH-2 (peptide)
peptide: [pGlu]HWSH[dA]WYPG-NH2
SMILES: C[C@@H](NC(=O)[C@H](Cc1c[nH]cn1)NC(=O)[C@H](CO)NC(=O)[C@H](Cc1c[nH]c2ccccc12)NC(=O)[C@H](Cc1c[nH]cn1)NC(=O)[C@@H]1CCC(=O)N1)C(=O)N[C@@H](Cc1c[nH]c2ccccc12)C(=O)N[C@@H](Cc1ccc(O)cc1)C(=O)N1CCC[C@H]1C(=O)NCC(N)=O
notes: Chemically synthesised by AnyGen Co
For the molecule B9, the “log IC50” value with bfGnRHR-3 [4] was -9.83 log IC50 (concentration unit not printed); in the assay with rat GnRHR [11], -6.85 log IC50 (concentration unit not printed). Moreover, in the assay with bfGnRHR-1 [12], the “inositol phosphate production, concentration needed compared with GnRH-2” value was ~8 fold lower concentration than GnRH-2. Moreover, the “inositol phosphate production, sensitivity compared with GnRH-1” value with rat GnRHR [5] is 10 fold lower sensitivity than GnRH-1. For the same molecule, the “Log EC50, inositol phosphate production” value with bfGnRHR-2 [6] was -9.91 log EC50 (concentration unit not printed); with bfGnRHR-1 [7], -9.91 log EC50 (concentration unit not printed); in the assay with rat GnRHR [8] it was -8.49 log EC50 (concentration unit not printed); in the assay with bfGnRHR-3 [9] it was -9.89 log EC50 (concentration unit not printed). For the same molecule, the “Emax (fold-induction)” value with Primate GnRH-2 receptor [10] came out at 11.8 fold-induction. Moreover, the “Ratio^a (EC50 relative to the EC50 of GnRH-2), luciferase activation” value with Primate GnRH-2 receptor [10] is 0.38 ratio to GnRH-2.
On to Ac-[d2Nal][dPhe(4-Cl)][d3Pal]SY[dCit]LRP[dA]-NH2 [Cetrorelix], for which the “Log IC50, inhibition of GnRH-2-induced inositol phosphate production in GH3 cells expressing the receptor” value with bfGnRHR-2 [1] is -6.43 log IC50 (concentration unit not printed).

B10: [Tyr^5, D-Ala^6, Leu^8]GnRH-2 (peptide)
peptide: [pGlu]HWSY[dA]WLPG-NH2
SMILES: CC(C)C[C@H](NC(=O)[C@H](Cc1c[nH]c2ccccc12)NC(=O)[C@@H](C)NC(=O)[C@H](Cc1ccc(O)cc1)NC(=O)[C@H](CO)NC(=O)[C@H](Cc1c[nH]c2ccccc12)NC(=O)[C@H](Cc1c[nH]cn1)NC(=O)[C@@H]1CCC(=O)N1)C(=O)N1CCC[C@H]1C(=O)NCC(N)=O
For the molecule B10, in the assay with Primate GnRH-2 receptor [10], the “Emax (fold-induction)” value turned out to be 7.35 fold-induction and the “Ratio^a (EC50 relative to the EC50 of GnRH-2), luciferase activation” value is 3.01 ratio to GnRH-2.
